Experimental data published in publication PMC8977021, “bZIP transcription factors PcYap1 and PcRsmA link oxidative stress response to secondary metabolism and development in Penicillium chrysogenum”.

Assays:
[1] = target: T1, PcAtf21 del319-319 (Penicillium chrysogenum Wis54-1255 (P. rubens Wis54-1255)) (UniProt B6HLX5); experiment: EMSA; conditions: LightShift binding buffer 1X, about 10% glycerol, 5 mM MgCl2, 20 fmol biotin probe, 10 ug protein, 20 uL, room temperature 20 min; 5% native PAGE in 0.5X TBE …
T1 sequence: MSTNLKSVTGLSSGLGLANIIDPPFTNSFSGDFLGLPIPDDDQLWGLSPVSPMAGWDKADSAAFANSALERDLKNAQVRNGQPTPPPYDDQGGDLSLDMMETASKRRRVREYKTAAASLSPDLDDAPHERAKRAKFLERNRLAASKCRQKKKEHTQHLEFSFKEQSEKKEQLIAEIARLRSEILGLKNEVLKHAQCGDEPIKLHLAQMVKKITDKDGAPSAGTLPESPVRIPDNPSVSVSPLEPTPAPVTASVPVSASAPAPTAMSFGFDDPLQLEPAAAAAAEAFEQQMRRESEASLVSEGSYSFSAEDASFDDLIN

PcAtf21 = target: T2, PcAtf21 (Penicillium chrysogenum Wis54-1255 (P. …, UniProt B6HLX5 1-318, del319-319)); experiment: EMSA; LightShift binding buffer 1X, about 10% glycerol, 5 mM MgCl2, 20 fmol biotin probe, 10 ug protein, 20 uL, room temperature 20 min; 5% native PAGE in 0.5X TBE; pH and salt not given; conditions: protein: recombinant; tags: C-terminal c-myc-6xHis; chain copies: 2; label: 3' biotin; blunt
T2 sequence: T1 sequence

Question: How did the binding [1] turn out when “TGTTTATGCTGAGACAACCTGGAGACATTATACGCTTGCAGCCCAGATGCTTACTGGATGGGGCCGCTGGAGCCAGTGTAAAATTAGTAACCGTATCTCGAAGTCGGAGGGTCTTTGGTGGTCTGAGATTTCAGTCGGTCCGCACCGTGGCATTTGCAGACGGTGCGATCAGGCCAATCGTTGATGCTCGG (double strand) [probe 5]” was run?
Answer: no binding

Question: With “AACATCGCCGTCGTTGAGTGCACGTTGCCTACTCTCTCGTGGCTTGGCTGGGCCCACGAGCCCGATTGACTCGACGGTGTTACTTGGGTATCTATGGCCCCGTTTTCTGGCACGGTAATGATAAGTACTTACTAGTCTTCGAGCGGGGGAGTGTTGCTCTGCCCGAGCATCAACGATTGGCCTGA (double strand) [probe 4]” as the molecule, how does the binding [1] read?
Answer: no binding

B1: NorR4 (dsDNA)
DNA 1: TTTCAACATTTCTTGAGTACTTTTCTAAGCCGTGACATAATGAACGGATCA
DNA 2: TGATCCGTTCATTATGTCACGGCTTAGAAAAGTACTCAAGAAATGTTGAAA
Question: Does B1 bind (PcAtf21)?
Answer: binds

B2: penDE-CRE123 (dsDNA)
DNA 1: AGGTCCTGCATTAGCGTACGCCCCAGGTTTAGATCAAAGTTACGTAATTTATATGTA
DNA 2: TACATATAAATTACGTAACTTTGATCTAAACCTGGGGCGTACGCTAATGCAGGACCT
Question: Does B2 bind (PcAtf21)?
Answer: no binding
